In US20250320281A1:

What was measured:
Assay in all cases: cell-based or functional assay
[1] = target: HIV-1 envelope glycoprotein (Env) of isolate NL43, clade B (HIV-1)
[2] = target: HIV-1 envelope glycoprotein (Env) of isolate MGRM-AG-005, clade AG (HIV-1)
[3] = target: HIV-1 envelope glycoprotein (Env) of isolate MGRM-C-026, clade C (HIV-1)
[4] = target: HIV-1 envelope glycoprotein (Env) of isolate 92TH021, clade AE (HIV-1)
[5] = target: HIV-1 envelope glycoprotein (Env) of isolate 93UG077, clade A (HIV-1)
[6] = target: HIV-1 envelope glycoprotein (Env) of isolate MGRM-D-018, clade D (HIV-1)
[7] = target: HIV-1 envelope glycoprotein (Env) of isolate APV13, clade B (HIV-1)
[8] = target: aMLV envelope protein (negative control pseudovirus)
[9] = target: HIV-1 envelope glycoprotein (Env) of isolate 92UG005, clade D (HIV-1)
[10] = target: HIV-1 envelope glycoprotein (Env) of isolate 92RW020, clade A (HIV-1)
[11] = target: HIV-1 envelope glycoprotein (Env) of isolate 93IN905, clade C (HIV-1)
[12] = target: HIV-1 envelope glycoprotein (Env) of isolate MGRM-D-001, clade D (HIV-1)
[13] = target: HIV-1 envelope glycoprotein (Env) of isolate APV6, clade B (HIV-1)
[14] = target: HIV-1 envelope glycoprotein (Env) of isolate 92UG024, clade D (HIV-1)
[15] = target: HIV-1 envelope glycoprotein (Env) of isolate MGRM-C-028, clade C (HIV-1)
[16] = target: HIV-1 envelope glycoprotein (Env) of isolate JRFL, clade B (HIV-1)
[17] = target: HIV-1 envelope glycoprotein (Env) of isolate APV17, clade B (HIV-1)
[18] = target: HIV-1 envelope glycoprotein (Env) of isolate MGRM-A-010, clade A (HIV-1)
[19] = target: HIV-1 envelope glycoprotein (Env) of isolate 92BR020, clade B (HIV-1)
[20] = target: HIV-1 envelope glycoprotein (Env) of isolate MGRM-C-027, clade C (HIV-1)
[21] = target: HIV-1 envelope glycoprotein (Env) of isolate CMU02, clade AE (HIV-1)
[22] = target: HIV-1 envelope glycoprotein (Env) of isolate JRCSF, clade B (HIV-1) (UniProt P20871)
[23] = target: HIV-1 envelope glycoprotein (Env) of isolate 94UG103, clade A (HIV-1)

B1: PGT-135 (5343_B08; 5344_E16) human monoclonal anti-HIV antibody (antibody, V domains shown)
VH: QLQMQESGPGLVKPSETLSLSCTVSGDSIRGGEWGDKDYHWGWVRHSAGKGLEWIGSIHWRGTTHYKESLRRRVSMSIDTSRNWFSLRLASVTAADTAVYFCARHRHHDVFMLVPIAGWFDVWGPGVQVTVSS
VL: EIVMTQSPDTLSVSPGETVTLSCRASQNINKNLAWYQYKPGQSPRLVIFETYSKIAAFPARFVASGSGTEFTLTINNMQSEDVAVYYCQQYEEWPRTFGQGTKVDIK
Binder B1 has an IC50 (neutralization of pseudovirus) [1] of 6.79 µg/mL, an IC80 (neutralization of pseudovirus) [1] greater than 10 µg/mL and an IC90 (neutralization of pseudovirus) [1] greater than 10 µg/mL. It also gave an IC95 (neutralization of pseudovirus) [1] greater than 10 µg/mL, an IC50 (neutralization of pseudovirus) [2] greater than 10 µg/mL and an IC80 (neutralization of pseudovirus) [2] greater than 10 µg/mL. It also gave an IC90 (neutralization of pseudovirus) [2] greater than 10 µg/mL, an IC95 (neutralization of pseudovirus) [2] greater than 10 µg/mL and an IC50 (neutralization of pseudovirus) [3] of 0.0123 µg/mL. For the same binder, the IC80 (neutralization of pseudovirus) [3] was 0.0562 µg/mL, the IC90 (neutralization of pseudovirus) [3] was 0.139 µg/mL and the IC95 (neutralization of pseudovirus) [3] was 0.331 µg/mL. For the same binder, the IC50 (neutralization of pseudovirus) [4] was greater than 10 µg/mL, the IC80 (neutralization of pseudovirus) [4] was greater than 10 µg/mL and the IC90 (neutralization of pseudovirus) [4] was greater than 10 µg/mL. For the same binder, the IC95 (neutralization of pseudovirus) [4] was greater than 10 µg/mL, the IC50 (neutralization of pseudovirus) [5] was greater than 10 µg/mL and the IC80 (neutralization of pseudovirus) [5] was greater than 10 µg/mL. The IC90 (neutralization of pseudovirus) [5] was greater than 10 µg/mL, the IC95 (neutralization of pseudovirus) [5] was greater than 10 µg/mL and the IC50 (neutralization of pseudovirus) [6] was 0.0433 µg/mL. It also gave an IC80 (neutralization of pseudovirus) [6] of 0.2 µg/mL, an IC90 (neutralization of pseudovirus) [6] greater than 10 µg/mL and an IC95 (neutralization of pseudovirus) [6] greater than 10 µg/mL. For the same binder, the IC50 (neutralization of pseudovirus) [7] was 0.545 µg/mL, the IC80 (neutralization of pseudovirus) [7] was greater than 10 µg/mL and the IC90 (neutralization of pseudovirus) [7] was greater than 10 µg/mL. It also gave an IC95 (neutralization of pseudovirus) [7] greater than 10 µg/mL, an IC50 (neutralization of pseudovirus) [8] greater than 10 µg/mL and an IC80 (neutralization of pseudovirus) [8] greater than 10 µg/mL. For the same binder, the IC90 (neutralization of pseudovirus) [8] was greater than 10 µg/mL, the IC95 (neutralization of pseudovirus) [8] was greater than 10 µg/mL and the IC50 (neutralization of pseudovirus) [9] was greater than 10 µg/mL. The IC80 (neutralization of pseudovirus) [9] was greater than 10 µg/mL, the IC90 (neutralization of pseudovirus) [9] was greater than 10 µg/mL and the IC95 (neutralization of pseudovirus) [9] was greater than 10 µg/mL. It also gave an IC50 (neutralization of pseudovirus) [10] of 0.157 µg/mL, an IC80 (neutralization of pseudovirus) [10] of 3.46 µg/mL and an IC90 (neutralization of pseudovirus) [10] greater than 10 µg/mL. It also gave an IC95 (neutralization of pseudovirus) [10] greater than 10 µg/mL, an IC50 (neutralization of pseudovirus) [11] of 0.0183 µg/mL and an IC80 (neutralization of pseudovirus) [11] of 0.0648 µg/mL. The IC90 (neutralization of pseudovirus) [11] was 0.136 µg/mL, the IC95 (neutralization of pseudovirus) [11] was 0.268 µg/mL and the IC50 (neutralization of pseudovirus) [12] was greater than 10 µg/mL. It also gave an IC80 (neutralization of pseudovirus) [12] greater than 10 µg/mL, an IC90 (neutralization of pseudovirus) [12] greater than 10 µg/mL and an IC95 (neutralization of pseudovirus) [12] greater than 10 µg/mL. For the same binder, the IC50 (neutralization of pseudovirus) [13] was greater than 10 µg/mL, the IC80 (neutralization of pseudovirus) [13] was greater than 10 µg/mL and the IC90 (neutralization of pseudovirus) [13] was greater than 10 µg/mL. It also gave an IC95 (neutralization of pseudovirus) [13] greater than 10 µg/mL, an IC50 (neutralization of pseudovirus) [14] of 0.0139 µg/mL and an IC80 (neutralization of pseudovirus) [14] of 0.054 µg/mL. The IC90 (neutralization of pseudovirus) [14] was 0.122 µg/mL, the IC95 (neutralization of pseudovirus) [14] was 0.267 µg/mL and the IC50 (neutralization of pseudovirus) [15] was 2.16 µg/mL. The IC80 (neutralization of pseudovirus) [15] was greater than 10 µg/mL, the IC90 (neutralization of pseudovirus) [15] was greater than 10 µg/mL and the IC95 (neutralization of pseudovirus) [15] was greater than 10 µg/mL. For the same binder, the IC50 (neutralization of pseudovirus) [16] was greater than 10 µg/mL, the IC80 (neutralization of pseudovirus) [16] was greater than 10 µg/mL and the IC90 (neutralization of pseudovirus) [16] was greater than 10 µg/mL. The IC95 (neutralization of pseudovirus) [16] was greater than 10 µg/mL, the IC50 (neutralization of pseudovirus) [17] was greater than 10 µg/mL and the IC80 (neutralization of pseudovirus) [17] was greater than 10 µg/mL. It also gave an IC90 (neutralization of pseudovirus) [17] greater than 10 µg/mL, an IC95 (neutralization of pseudovirus) [17] greater than 10 µg/mL and an IC50 (neutralization of pseudovirus) [18] greater than 10 µg/mL. The IC80 (neutralization of pseudovirus) [18] was greater than 10 µg/mL, the IC90 (neutralization of pseudovirus) [18] was greater than 10 µg/mL and the IC95 (neutralization of pseudovirus) [18] was greater than 10 µg/mL. The IC50 (neutralization of pseudovirus) [19] was 0.104 µg/mL, the IC80 (neutralization of pseudovirus) [19] was 0.253 µg/mL and the IC90 (neutralization of pseudovirus) [19] was 0.43 µg/mL. The IC95 (neutralization of pseudovirus) [19] was 0.72 µg/mL, the IC50 (neutralization of pseudovirus) [20] was greater than 10 µg/mL and the IC80 (neutralization of pseudovirus) [20] was greater than 10 µg/mL. It also gave an IC90 (neutralization of pseudovirus) [20] greater than 10 µg/mL, an IC95 (neutralization of pseudovirus) [20] greater than 10 µg/mL and an IC50 (neutralization of pseudovirus) [21] greater than 10 µg/mL. For the same binder, the IC80 (neutralization of pseudovirus) [21] was greater than 10 µg/mL, the IC90 (neutralization of pseudovirus) [21] was greater than 10 µg/mL and the IC95 (neutralization of pseudovirus) [21] was greater than 10 µg/mL. The IC50 (neutralization of pseudovirus) [22] was 0.113 µg/mL, the IC80 (neutralization of pseudovirus) [22] was 0.503 µg/mL and the IC90 (neutralization of pseudovirus) [22] was 1.47 µg/mL. The IC95 (neutralization of pseudovirus) [22] was 8.3 µg/mL, the IC50 (neutralization of pseudovirus) [23] was greater than 10 µg/mL and the IC80 (neutralization of pseudovirus) [23] was greater than 10 µg/mL. It also gave an IC90 (neutralization of pseudovirus) [23] greater than 10 µg/mL and an IC95 (neutralization of pseudovirus) [23] greater than 10 µg/mL.
